In patent publication US20250027068:
Positions count from the first letter of the chain named.

B1: PRT-575 (protein)
chain: MANQEIRYSEETPKTITSVWTKGVTPPTDFIYNEDVLHAPYIANQGWYDITKTFNGKDDLLCGAATAGNMLHWWFDQNKEQIERYLKKHPEKQKINFNGEQMFDVKEAIDTKDSQTNSKLFEYFKDKAFPYLSTKHLGVFPDHVIDMFINGYRLSLTNHGPTPVKEQTKDPRGGIFDAVFTRGDQSKLLTSRHDFKEKTLKEISDLIKQELTEGKALGLSHTYANVRINHVINLWGADFDAEGNLEAIYVTDSDSNASIGMKKYYVGVNSAGKVAISAKEIEGDNIGAQVLGLFTLSTGKDIWEQTNLEHHHHHH
B2: PRT-544 (protein)
chain: MANQEIRYSKNENPNVTIKWVHGIGEPTQAEKEKIEFWWYETTTTKFFNNRKVDHLGDGNQCWAKTDSNMLHWWFVQNEENINQYIAKKNITGKINFNGEQMFDVKEGIDDNQEKEKSYIANTFRTKKAHNLSTKHKGDYIINGLSWYLYGLNNFKIAHGPTPVKKKPKFYGPALFKDVFNRGDGNTPIIVETDFKEYTKKEFEDTLSAALDSKKAIGINIYGSNVDYQHAITLWGAAFDEEENIIAIYVVDNNFKFENRIFPYGIWYQKEGRPYLFNYEINSFVKNRYVGEVITLDKGEAQWQETNLEHHHHHH
B3: PRT-541 (protein)
chain: B2 chain with N181S, I294T
B4: PRT-538 (protein)
chain: MANQEIRYSSDSEWANKKVWVYGITPPEEGAWKYSTYYLPWKKEYGWYDCNKRNPTADGMMCWAATASNLLHWWIAQNKEYIDLYGDKYKGPDKINFNGEQMFDVKEYIDPLDKPQESDIFQCFIDKSFADLSTKHEAGYGDEGINWFIHGIIPSSPAHGPTPVKLRKPYNPAGYFKDVFPRGDGVKLLSNNGDFKELGKERFNETIKDALKNKKGIGLSIGPVNVRSGHVVTMWGAEFDENGDVSYIYIADNNDRWGVGCIRYQIVYEEGGTYTCYKTEIINEDRPIPINRLVTLELGEEYWKQTNLEHHHHHH
B5: PRT-263 (protein)
chain: MVTSVWTKGVTPPTNFTYGEDVLHAPYVANQGWYDITKLFNGKDNLLCGAATAGNMLHWWFDQNKEQIENYLKKHPEKQKINFNGEQLFDVKEAIDTKDSQLDSKLFEYFLEKAFPNLSTKHLGVFPDHVIDMFINGYRLSLLNHGPTPVKRGSKDKRGGIFDAVFTRGVQSKLLTNRHDFKEKTLKEISDLIKQELTEGKALGISHTYANGRINHVINLWGADFDAEGNLEAIAVTDSDTNASIGMKKYFVGVNSSGKVAISAKEIEEDNIGAQVLGLFTLSTGQDIWNQTN
B6: PRT-254 (protein)
chain: MVTSVWTKGVTPPTNFTYGEDVLHAPYVANQGWYDITKTFNGKDDLLCGAATAGNMLHWWFDQNKEQIENYLKKHPEKQKINFNGEQMFDVKEAIDTKDSQLDSKLFEYFLEKAFPNLSTKHLGVFPDHVIDMFINGYRLSLLNHGPTPVKRGSKDPRGGIFDAVFTRGDQSKLLTNRHDFKEKTLKEISDLIKQELTEGKALGISHTYANVRINHVINLWGADFDAEGNLEAIYVTDSDSNKSIGMKKYPVGVNSNGKVAISAKEIEEDNIGAQVLGLFTLSTGQDIWNQTN
B7: PRT-255 (protein)
chain: B6 chain with R213G, Y235A, K243A, P251F, N257S
B8: PRT-262 (protein)
chain: B5 chain with L39T, G212V
B9: PRT-567 (protein)
chain: MANQEIRYSEETPSTITSVWTKGVTPPTDFIQNEDVLHAPYIANQGWYDITKTFNGKDDLLCGAATAGNMLHWWFDQNKEQIENYLKKHPEKQKINFNGEQMFDVKEAIDTKDSQTDSALFEYFKDKAFPYLSTKHLGVFPDHVIDMFINGYRLSLTNHGPTPVKRGTKDPRGGIFDAVFTRGDQSKLLTSRHDFKEKTLNEISDLIKQELTEGKALGLSHTYANVRINHVINLWGADFNAEGNLEAIYVTDSDSNASIGMKKYYVGVNSAGKVAISAKEIEGDNIGAQVLGLFTLSTGQDIWNQTNLEHHHHHH
B10: PRT-573 (protein)
chain: B9 chain with D29Q, E122S, G167Q, D205Q, N304Q
B11: PRT-246 (protein)
chain: MVTSVWTKGVTPPANFTQGEDVFHAPYVANQGWYDITKLFNGKDDLLCGAATAGNMLHWWFDQNKDQIKRYLEEHPEKQKINFNGEQMFDVKEAIDTKNHQLDSKLFDYFKEKAFPYLSTKHLGVFPDHVIDMFINGYRLSLTNHGPTPVKEGSKDPRGGIFDAVFTRGDQSKLLTSRHDFKEKNLKEISDLIKKELTEGKALGLSHTYANVRINHVINLWGADFDSNGNLKAIYVTDSDSNPSIGMKKYFVGVNSSGKVAISAKEIKEDNIGAQVLGLFTLSTGQDSWNQTN
B12: PRT-247 (protein)
chain: B11 chain with D108E, K111L, Y235A, P243A
B13: PRT-554 (protein)
chain: MANQEIRYSEETPKTITSVWTKGVTPPTDFIKNEDVFHAPYVANQGWYDITKTFNGKDDLLCGAATAGNMLHWWFDQNKEEIENYLKKHPEKQKINFNGEQMFDVKEAIDTKDSQTDSALFNYFKDKAFPYLSTKHLGVFPDHVIDMFINGYRLSLTNHGPTPVKDGTKDPRGGIFDAVFTRGDQTKLLTARHDFKEKTLNEISDLIKQELTEGKALGLSHTYANVRINHVINLWGADFDSEGNLEAIYVTDSDSNASIGMKKYYVGVNAAGKVAISAKEIEDDNIGAQVLGLFTLSTGQDIWEQTNLEHHHHHH
B14: PRT-555 (protein)
chain: B13 chain with F37L, N84R, A119K, N122E, D166R, T186S, A191S, T212Q, A270S, Q300K
B15: PRT-556 (protein)
chain: MANQEIRYSKAKPKVITSVWTKGVTPPTQFTYNEDVFHAPYLPNQGWYDITKTFNGKDDLLCGAATAGNMLHWWFDQNKEQIERYLKEHPEKQKINFNGEQMFDVKEAIDTKDSQTNSKLFNYFKDKAFPYLSTKHLGVFPDHVIDMFINGYRLSLTNHGPTPVKEQNKDPRGGIFDDVFTRGDQSKLLTSRHDFKEKTLKEISDLIKQELKEGKALGLSHTYANVRINHVINLWGADFDAEGNLVAIYVTDSDSNASIGMKKYYVGVNSAGKVAISAKEIEDDNIGAQVLGLFTLSTGKDIWEKTNLEHHHHHH
B16: PRT-270 (protein)
chain: MVTSVWTKGVTPPTDFIYGEDVLHAPYKAGQGWYDITKLFNGKDDLLCGAATAGNMLHWWFDQNKEQIENYLKKHPEKQKINFNGEQMFDVKEAIDTKDSQLDSKLFEYFLEKAFPNLSTKHLGVFPDHVIDMFINGYRLSLLNHGPTPVKRGSKDPRGGIFDAVFTRGDQSKLLTNRHDLKNKTLKEISDLIKQELTEGKALGISHTYANGRINHVINLWGADFDAEGNLEAIAVTDSDSNASIGMKKYFVGVNSSGKVAISAKEIEEDNIGAQVLGLFTLSTGQDIWNQTN
B17: PRT-534 (protein)
chain: MANQEIRYSSDSEWANKKVWVYGITPPEEGAWKYSTYYLPWKKEYGWYDCNKRNPTADGMMCWAATASNLLHWWIAQNKEYIDLYGDKYKGPDKINFNGEQMFDVKEYIDPLDKPQESDIFQCFIDKSFADLSTKHEAGYGDAGINWFIHGIIPSSPAHGPTPVKLDYPYNPAGYFKDVFPRGDGVVLLGNNGDFKELSKERFNETIKDALKNKKAIGLSIGPVNVRSSHVVTIWGAEFDENGDVSYIYMADNNDNWGVGCIRYQIVYEEGGTYTCYKTEIIPSDRPIPINRLVTLELGEEYWKQTNLEHHHHHH

Biological target: pooled human IgG (human IgG1, 2, 3 and 4)

| Protein | Enzyme Activity Endpoint Assay: Fab′2 [ng/µL] | Enzyme Activity Endpoint Assay: Fc [ng/µL] | Enzyme Activity Endpoint Assay: IgG [ng/µL] | Enzyme Activity Endpoint Assay: scIgG [ng/µL] |
| --- | --- | --- | --- | --- |
| B1 | 254 | 309 | 94 | 607 |
| B2 | 12 | 170 | 314 | 748 |
| B3 | 0 | 0 | 854 | 3 |
| B4 | 5 | 0 | 1160 | 0 |
| B5 | 0 | 27 | 986 | 0 |
| B6 | 677 | 359 | 0 | 0 |
| B7 | 58 | 178 | 75 | 525 |
| B8 | 50 | 191 | 289 | 802 |
| B9 | 385 | 297 | 65 | 372 |
| B10 | 759 | 409 | 0 | 0 |
| B11 | 666 | 348 | 0 | 221 |
| B12 | 0 | 81 | 308 | 279 |
| B13 | 580 | 350 | 36 | 0 |
| B14 | 670 | 475 | 0 | 0 |
| B15 | 570 | 351 | 16 | 200 |
| B16 | 376 | 288 | 100 | 311 |
| B17 | 0 | 0 | 1380 | 0 |
